We go through 1 molecule from patent US12329806B2, “Compound for modulating rlr, tlr, oas and/or oncostatin m pathways, use thereof for preparing a medicine, composition, method for modulating said pathways and method of treatment” (Instituto Butantan, priority 2018, dated 2025).

For one experiment, the system named is SK-MEL-28 cells. Put plainly: Cell viability tests (survival rate), previous experiment. It counts as cell-based, human. The note with it: rounded values. An excerpt:
(§1) ER stress also promotes mitochondrial dysfunction, Cytochrome c release, PARP cleavage, Ca+^2 mobilization and caspase activation in SK-MEL-28 and Mia-PaCa-2 cells, positively regulating CASP3. The survival rate of the previous experiment, calculated using cell viability tests, is herein summarized: Mia-PaCa-2 67%, SK-MEL-28 44%, SK-MEL-5 42%, non-tumoral human fibroblasts 100% (rounded values). These numbers indicate that part of the cells possibly survives through a positive unfolded protein response (UPR) and part dies. […] Furthermore, autophagy could also be evoked to recover a global tissue homeostasis, and, in this case, there is the signature of immunogenic cell death (ICD). It is believed that the ICD could explain this.

The subject of the next experiment is Mia-PaCa-2 cells. Described as above. The note with it: rounded values. In kind it is cell-based, human.
Text: as §1

B1: Amblyomin-X: recombinant Kunitz type protein identified in a cDNA library of Amblyomma sculptum tick salivary glands (protein)
chain: MRQLAVLALVIFTGMCVESQSANSKAVCNLPKLAGDETCSNKTEIRWYYNGTACEAFIFKGCGGNDNNFDRVDDCQRLCEEQTHFHFESPKLICFKVQDYWILNDIMKKNLTGISLKSEEEDADSGEID
modifications: Amblyomin-X
notes: recombinant Kunitz type protein identified in a cDNA library of Amblyomma sculptum tick salivary glands
B1: the survival rate in the experiment with SK-MEL-28 cells is given as 44%; with Mia-PaCa-2 cells, 67%.
